Measurements published in patent US7279304B2, “Methods for preparation of macrocyclic molecules and macrocyclic molecules prepared thereby” (President and Fellows of Harvard College, priority 2000, dated 2007).

Legend:
Experiment in all cases: purified protein, by the assay type
Type in all cases: biochemical
[1] = substrate: CC(=O)NCCSC(=O)[C@H](CC(C)C)NC(=O)[C@H](CCC(=O)O)NC(=O)[C@@H](NC(=O)[C@H](Cc1ccc(O)cc1)NC(=O)[C@H](CCC(N)=O)NC(=O)[C@H](CC(N)=O)NC(=O)[C@@H](Cc1ccccc1)NC(=O)[C@H](Cc1ccccc1)NC(=O)[C@@H]1CCCN1C(=O)[C@H](N)Cc1ccccc1)C(C)C; details: other: Table 1; macrocyclization of peptide-SNAC substrate; 25 mM MOPS, pH 7.0
Protocol: (§1) Macrocyclization reactions were carried out in 25 mM MOPS, pH 7.0 in a total volume of 400 μL. Reactions were initiated by addition of TycC TE and quenched at various time points by the addition of 25 μL 1.7% TFA/water, flash frozen in liquid nitrogen and stored at −80° C. (for Ex. 13, reactions were quenched by the addition of sodium phosphate, pH 5.3, to 100 mM). The reactions were then thawed, 85 μL acetonitrile added, and analyzed by analytical HPLC with monitoring at 220 nm (20% to 80% acetonitrile in 0.1% TFA/water, or in 25 mM potassium phosphate, pH 5.3 for Ex. 13, over 35 minutes, Vydac protein and peptide C18 column). Initial rates were calculated using 1 minute time points. Peptide-SNAC and reaction product concentrations were determined for all Tyr-containing peptides based on the estimated extinction coefficient ε (280 nm)=1,280 M^−1 cm^−1, which agrees with the experimentally determined ε (280 nm) of Ex. 1. For peptide-SNACs not containing Tyr, ε (220 nm) was determined experimentally, and concentrations of corresponding cyclic products determined by assuming equal ε (220 nm) values for the peptide-SNAC and cyclic product.

[2] = substrate: CC(=O)NCCSC(=O)[C@H](CC(C)C)NC(=O)[C@H](CCCN)NC(=O)[C@@H](NC(=O)[C@H](Cc1ccc(O)cc1)NC(=O)[C@H](CCC(N)=O)NC(=O)[C@H](C)NC(=O)[C@@H](Cc1ccccc1)NC(=O)[C@H](Cc1ccccc1)NC(=O)[C@@H]1CCCN1C(=O)[C@H](N)Cc1ccccc1)C(C)C; details: other: Table 1; macrocyclization of peptide-SNAC substrate; 25 mM MOPS, pH 7.0
Protocol: as §1

[3] = substrate: CC(=O)NCCSC(=O)[C@H](CC(C)C)NC(=O)[C@H](CCCN)NC(=O)[C@@H]1CCCN1C(=O)[C@@H](Cc1ccccc1)NC(=O)[C@H](CC(C)C)NC(=O)[C@H](CCCN)NC(=O)[C@@H]1CCCN1C(=O)[C@H](N)Cc1ccccc1; details: other: Table 2; cyclization of peptide-SNAC substrates of 6-14 amino acids
Protocol: as §1

[4] = substrate: CC(=O)NCCSC(=O)[C@H](CC(C)C)NC(=O)[C@H](CCCN)NC(=O)[C@@H](Cc1ccccc1)NC(=O)[C@H](CC(C)C)NC(=O)[C@H](CCCN)NC(=O)[C@H](N)Cc1ccccc1; details: other: Table 2; cyclization of peptide-SNAC substrates of 6-14 amino acids
Protocol: as §1

[5] = substrate: CC(=O)NCCSC(=O)[C@H](CC(C)C)NC(=O)[C@H](CCCN)NC(=O)[C@@H](NC(=O)[C@H](Cc1ccc(O)cc1)NC(=O)[C@H](CCC(N)=O)NC(=O)[C@H](CC(N)=O)NC(=O)[C@@H](C)NC(=O)[C@H](Cc1ccccc1)NC(=O)[C@@H]1CCCN1C(=O)[C@H](N)Cc1ccccc1)C(C)C; details: other: Table 1; macrocyclization of peptide-SNAC substrate; 25 mM MOPS, pH 7.0
Protocol: as §1

B1: TycC TE (excised TE domain protein from the tyrocidine NRPS) (Brevibacillus parabrevis) (protein)
chain: FESRYGTAILLNQETARNVFCFTPIGAQSVYYQKLAAEIQGVSLYSFDFIQDDNRMEQYIAAITAIDPSGPYTLMGYSSGGNLAFEVAKELEERGYGVTDIILFDSYWKDKAIERTVAETENDIAQLFAEIGENTEMFNMTQEDFQLYAANEFVKQSFVRKTVSYVMFHNNLVNTGMTTAAIHLIQSELEADEEAPVAAKWNESAWANATQRLLTYSGHGIHSRMLAGDYASQNASILQNILQELFILK
notes: excised TE domain protein from the tyrocidine NRPS (TycC TE); made in house
Km [1]: 56 µM | Km [2]: 6 µM | Km [3]: 3 µM | kcat [3]: 0.283 s⁻¹ | Km [4]: 4 µM | kcat [4]: 0.5 s⁻¹ | Km [5]: 6 µM
